Results on 1 protein are retold here after publication PMC7644948 (iScience, 2020).

The data set deals with the molecule itself. The data set is described as follows: SEC. On the technique in general: In gel filtration, larger molecules generally elute earlier.

B1: PKM2 mutant with triple mutations (R399E, K422A, and N523A) (enzyme)
chain: not shown
With B1, the “stoichiometry N” value worked out at 2.

The term stoichiometry N denotes a count of units in the complex or per binding partner.
